Laboratory results: US20090099029A1, “Methods and substrates for conducting assays” (Invitrogen Corporation, priority 2005, published 2009)

B1: FES (protein)
chain: MGFSSELCSPQGHGVLQQMQEAELRLLEGMRKWMAQRVKSDREYAGLLHHMSLQDSGGQSRAISPDSPISQSWAEITSQTEGLSRLLRQHAEDLNSGPLSKLSLLIRERQQLRKTYSEQWQQLQQELTKTHSQDIEKLKSQYRALARDSAQAKRKYQEASKDKDRDKAKDKYVRSLWKLFAHHNRYVLGVRAAQLHHQHHHQLLLPGLLRSLQDLHEEMACILKEILQEYLEISSLVQDEVVAIHREMAAAAARIQPEAEYQGFLRQYGSAPDVPPCVTFDESLLEEGEPLEPGELQLNELTVESVQHTLTSVTDELAVATEMVFRRQEMVTQLQQELRNEEENTHPRERVQLLGKRQVLQEALQGLQVALCSQAKLQAQQELLQTKLEHLGPGEPPPVLLLQDDRHSTSSSEQEREGGRTPTLEILKSHISGIFRPKFSLPPPLQLIPEVQKPLHEQLWYHGAIPRAEVAELLVHSGDFLVRESQGKQEYVLSVLWDGLPRHFIIQSLDNLYRLEGEGFPSIPLLIDHLLSTQQPLTKKSGVVLHRAVPKDKWVLNHEDLVLGEQIGRGNFGEVFSGRLRADNTLVAVKSCRETLPPDLKAKFLQEARILKQYSHPNIVRLIGVCTQKQPIYIVMELVQGGDFLTFLRTEGARLRVKTLLQMVGDAAAGMEYLESKCCIHRDLAARNCLVTEKNVLKISDFGMSREEADGVYAASGGLRQVPVKWTAPEALNYGRYSSESDVWSFGILLWETFSLGASPYPNLSNQQTREFVEKGGRLPCPELCPDAVFRLMEQCWAYEPGQRPSFSTIYQELQSIRKRHR
modifications: left off: small tags and cut ends
B2: ZAP70 (protein)
chain: MPDPAAHLPFFYGSISRAEAEEHLKLAGMADGLFLLRQCLRSLGGYVLSLVHDVRFHHFPIERQLNGTYAIAGGKAHCGPAELCEFYSRDPDGLPCNLRKPCNRPSGLEPQPGVFDCLRDAMVRDYVRQTWKLEGEALEQAIISQAPQVEKLIATTAHERMPWYHSSLTREEAERKLYSGAQTDGKFLLRPRKEQGTYALSLIYGKTVYHYLISQDKAGKYCIPEGTKFDTLWQLVEYLKLKADGLIYCLKEACPNSSASNASGAAAPTLPAHPSTLTHPQRRIDTLNSDGYTPEPARITSPDKPRPMPMDTSVYESPYSDPEELKDKKLFLKRDNLLIADIELGCGNFGSVRQGVYRMRKKQIDVAIKVLKQGTEKADTEEMMREAQIMHQLDNPYIVRLIGVCQAEALMLVMEMAGGGPLHKFLVGKREEIPVSNVAELLHQVSMGMKYLEEKNFVHRDLAARNVLLVNRHYAKISDFGLSKALGADDSYYTARSAGKWPLKWYAPECINFRKFSSRSDVWSYGVTMWEALSYGQKPYKKMKGPEVMAFIEQGKRMECPPECPPELYALMSDCWIYKWEDRPDFLTVEQRMRACYYSLASKVEGPPGSTQKAEAACA
modifications: left off: small tags and cut ends
B3: JAK3 (protein)
chain: ISSDYELLSDPTPGALAPRDGLWNGAQLYACQDPTIFEERHLKYISQLGKGNFGSVELCRYDPLGDNTGALVAVKQLQHSGPDQQRDFQREIQILKALHSDFIVKYRGVSYGPGRQSLRLVMEYLPSGCLRDFLQRHRARLDASRLLLYSSQICKGMEYLGSRRCVHRDLAARNILVESEAHVKIADFGLAKLLPLDKDYYVVREPGQSPIFWYAPESLSDNIFSRQSDVWSFGVVLYELFTYCDKSCSPSAEFLRMMGCERDVPALCRLLELLEEGQRLPAPPACPAEVHELMKLCWAPSPQDRPSFSALGPQLDMLWSGSRGCETHAFTAHPEGKHHSLSFS
modifications: left off: a dimerising Fc or GST
B4: MATK(HYL) (protein)
chain: MQGHFPAERREGRPRRGTRGQQQLLVSPRFLRAWHPPPVSARMPTRRWAPGTQCITKCEHTRPKPGELAFRKGDVVTILEACENKSWYRVKHHTSGQEGLLAAGALREREALSADPKLSLMPWFHGKISGQEAVQQLQPPEDGLFLVRESARHPGDYVLCVSFGRDVIHYRVLHRDGHLTIDEAVFFCNLMDMVEHYSKDKGAICTKLVRPKRKHGTKSAEEELARAGWLLNLQHLTLGAQIGEGEFGAVLQGEYLGQKVAVKNIKCDVTAQAFLDETAVMTKMQHENLVRLLGVILHQGLYIVMEHVSKGNLVNFLRTRGRALVNTAQLLQFSLHVAEGMEYLESKKLVHRDLAARNILVSEDLVAKVSDFGLAKAERKGLDSSRLPVKWTAPEALKHGKFTSKSDVWSFGVLLWEVFSYGRAPYPKMSLKEVSEAVEKGYRMEPPEGCPGPVHVLMSSCWEAEPARRPPFRKLAEKLARELRSAGAPASVSGQDADGSTSPRSQEP
modifications: left off: small tags and cut ends
B5: FER (protein)
chain: KSGVVLLNPIPKDKKWILSHEDVILGELLGKGNFGEVYKGTLKDKTSVAVKTCKEDLPQELKIKFLQEAKILKQYDHPNIVKLIGVCTQRQPVYIIMELVSGGDFLTFLRRKKDELKLKQLVKFSLDAAAGMLYLESKNCIHRDLAARNCLVGENNVLKISDFGMSRQEDGGVYSSSGLKQIPIKWTAPEALNYGRYSSESDVWSFGILLWETFSLGVCPYPGMTNQQAREQVERGYRMSAPQHCPEDISKIMMKCWDYKPENRPKFSELQKELTIIKRKLT
modifications: left off: a dimerising Fc or GST
B6: PTK2(FAK) (protein)
chain: MAAAYLDPNLNHTPNSSTKTHLGTGMERSPGAMERVLKVFHYFESNSEPTTWASIIRHGDATDVRGIIQKIVDSHKVKHVACYGFRLSHLRSEEVHWLHVDMGVSSVREKYELAHPPEEWKYELRIRYLPKGFLNQFTEDKPTLNFFYQQVKSDYMLEIADQVDQEIALKLGCLEIRRSYWEMRGNALEKKSNYEVLEKDVGLKRFFPKSLLDSVKAKTLRKLIQQTFRQFANLNREESILKFFEILSPVYRFDKECFKCALGSSWIISVELAIGPEEGISYLTDKGCNPTHLADFTQVQTIQYSNSEDKDRKGMLQLKIAGAPEPLTVTAPSLTIAENMADLIDGYCRLVNGTSQSFIIRPQKEGERALPSIPKLANSEKQGMRTHAVSVSETDDYAEIIDEEDTYTMPSTRDYEIQRERIELGRCIGEGQFGDVHQGIYMSPENPALAVAIKTCKNCTSDSVREKFLQEALTMRQFDHPHIVKLIGVITENPVWIIMELCTLGELRSFLQVRKYSLDLASLILYAYQLSTALAYLESKRFVHRDIAARNVLVSSNDCVKLGDFGLSRYMEDSTYYKASKGKLPIKWMAPESINFRRFTSASDVWMFGVCMWEILMHGVKPFQGVKNNDVIGRIENGERLPMPPNCPPTLYSLMTKCWAYDPSRRPRFTELKAQLSTILEEEKAQQEERMRMESRRQATVSWDSGGSDEAPPKPSRPGYPSPRSSEGFYPSPQHMVQTNHYQVSGYPGSHGITAMAGSIYPGQASLLDQTDSWNHRPQEIAMWQPNVEDSTVLDLRGIGQVLPTHLMEERLIRQQQEMEEDQRWLEKEERFLKPDVRLSRGSIDREDGSLQGPIGNQHIYQPVGKPDPAAPPKKPPRPGAPGHLGSLASLSSPADSYNEGVKLQPQEISPPPTANLDRSNDKVYENVTGLVKAVIEMSSKIQPAPPEEYVPMVKEVGLALRTLLATVDETIPLLPASTHREIEMAQKLLNSDLGELINKMKLAQQYVMTSLQQEYKKQMLTAAHALAVDAKNLLDVIDQARLKMLGQTRPH
modifications: left off: a dimerising Fc or GST
B7: CSK (protein)
chain: MSAIQAAWPSGTECIAKYNFHGTAEQDLPFCKGDVLTIVAVTKDPNWYKAKNKVGREGIIPANYVQKREGVKAGTKLSLMPWFHGKITREQAERLLYPPETGLFLVRESTNYPGDYTLCVSCDGKVEHYRIMYHASKLSIDEEVYFENLMQLVEHYTSDADGLCTRLIKPKVMEGTVAAQDEFYRSGWALNMKELKLLQTIGKGEFGDVMLGDYRGNKVAVKCIKNDATAQAFLAEASVMTQLRHSNLVQLLGVIVEEKGGLYIVTEYMAKGSLVDYLRSRGRSVLGGDCLLKFSLDVCEAMEYLEGNNFVHRDLAARNVLVSEDNVAKVSDFGLTKEASSTQDTGKLPVKWTAPEALREKKFSTKSDVWSFGILLWEIYSFGRVPYPRIPLKDVVPRVEKGYKMDAPDGCPPAVYEVMKNCWHLDAAMRPSFLQLREQLEHIKTHELHL
modifications: left off: small tags and cut ends
B8: BTK (protein)
chain: MAAVILESIFLKRSQQKKKTSPLNFKKRLFLLTVHKLSYYEYDFERGRRGSKKGSIDVEKITCVETVVPEKNPPPERQIPRRGEESSEMEQISIIERFPYPFQVVYDEGPLYVFSPTEELRKRWIHQLKNVIRYNSDLVQKYHPCFWIDGQYLCCSQTAKNAMGCQILENRNGSLKPGSSHRKTKKPLPPTPEEDQILKKPLPPEPAAAPVSTSELKKVVALYDYMPMNANDLQLRKGDEYFILEESNLPWWRARDKNGQEGYIPSNYVTEAEDSIEMYEWYSKHMTRSQAEQLLKQEGKEGGFIVRDSSKAGKYTVSVFAKSTGDPQGVIRHYVVCSTPQSQYYLAEKHLFSTIPELINYHQHNSAGLISRLKYPVSQQNKNAPSTAGLGYGSWEIDPKDLTFLKELGTGQFGVVKYGKWRGQYDVAIKMIKEGSMSEDEFIEEAKVMMNLSHEKLVQLYGVCTKQRPIFIITEYMANGCLLNYLREMRHRFQTQQLLEMCKDVCEAMEYLESKQFLHRDLAARNCLVNDQGVVKVSDFGLSRYVLDDEYTSSVGSKFPVRWSPPEVLMYSKFSSKSDIWAFGVLMWEIYSLGKMPYERFTNSETAEHIAQGLRLYRPHLASEKVYTIMYSCWHEKADERPTFKILLSNILDVMDEES
modifications: left off: small tags and cut ends
B9: TEC (protein)
chain: MNFNTILEEILIKRSQQKKKTSPLNYKERLFVLTKSMLTYYEGRAEKKYRKGFIDVSKIKCVEIVKNDDGVIPCQNKYPFQVVHDANTLYIFAPSPQSRDLWVKKLKEEIKNNNNIMIKYHPKFWTDGSYQCCRQTEKLAPGCEKYNLFESSIRKALPPAPETKKRRPPPPIPLEEEDNSEEIVVAMYDFQAAEGHDLRLERGQEYLILEKNDVHWWRARDKYGNEGYIPSNYVTGKKSNNLDQYEWYCRNMNRSKAEQLLRSEDKEGGFMVRDSSQPGLYTVSLYTKFGGEGSSGFRHYHIKETTTSPKKYYLAEKHAFGSIPEIIEYHKHNAAGLVTRLRYPVSVKGKNAPTTAGFSYEKWEINPSELTFMRELGSGLFGVVRLGKWRAQYKVAIKAIREGAMCEEDFIEEAKVMMKLTHPKLVQLYGVCTQQKPIYIVTEFMERGCLLNFLRQRQGHFSRDVLLSMCQDVCEGMEYLERNSFIHRDLAARNCLVSEAGVVKVSDFGMARYVLDDQYTSSSGAKFPVKWCPPEVFNYSRFSSKSDVWSFGVLMWEVFTEGRMPFEKYTNYEVVTMVTRGHRLYQPKLASNYVYEVMLRCWQEKPEGRPSFEDLLRTIDELVECEETFGR
modifications: left off: small tags and cut ends

What follows are molecules tested on kinases of Table 6 on Myelin Basic Protein (MBP) (assay: Kinase assay using MBP substrate, ProQ Diamond stain (Table 6)). Details: kinase printed on MBP-coated slide; 20 uM ATP, 30° C.; ProQ Diamond Microarray Stain; graded Strong/Weak/Negative.
Type: biochemical
Procedure, shortened: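 Bovine dephosphorylated MBP coated on aldehyde- or epoxy-glass slides, kinases printed on top; reaction buffer pH 7.5 with 4 mM MgCl2, 20 uM ATP, 5% DMSO, ± inhibitor, at 30° C. Phosphorylation detected by ProQ Diamond stain, 30 min in dark.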
For B1, the “MBP Kinase Activity” value was “Negative”. In the case of B2, the “MBP Kinase Activity” value is reported as “Negative”. B3 was tested, and the “MBP Kinase Activity” value was “Strong”. In the case of B4, the “MBP Kinase Activity” value is reported as “Negative”. B5 was tested, and the “MBP Kinase Activity” value was “Negative”. B6 was tested, and the “MBP Kinase Activity” value was “Negative”. In the case of B7, the “MBP Kinase Activity” value is reported as “Negative”. B8 was tested, and the “MBP Kinase Activity” value was “Strong”. B9 was tested, and the “MBP Kinase Activity” value was “Negative”.
